Data: patent US20130224224A1 (Boehringer Ingelheim, published 2013)
Positions count from the first letter of the chain named. Numbers in names are those of the source. Where two headings read alike, the source gives them in different places. Values belong to the binder of their own block, whether it stands above or below them.

Assays:
[1] = molecular target: T1, human CX3CR1 (human, UniProt P49238 1-355); assay: A647-fractalkine competition FACS, BA/F3-huCX3CR1
T1 construct: overexpressed on CHO, BA/F3 or HEK293T cells; also called huCX3CR1; hCX3CR1
T1 sequence: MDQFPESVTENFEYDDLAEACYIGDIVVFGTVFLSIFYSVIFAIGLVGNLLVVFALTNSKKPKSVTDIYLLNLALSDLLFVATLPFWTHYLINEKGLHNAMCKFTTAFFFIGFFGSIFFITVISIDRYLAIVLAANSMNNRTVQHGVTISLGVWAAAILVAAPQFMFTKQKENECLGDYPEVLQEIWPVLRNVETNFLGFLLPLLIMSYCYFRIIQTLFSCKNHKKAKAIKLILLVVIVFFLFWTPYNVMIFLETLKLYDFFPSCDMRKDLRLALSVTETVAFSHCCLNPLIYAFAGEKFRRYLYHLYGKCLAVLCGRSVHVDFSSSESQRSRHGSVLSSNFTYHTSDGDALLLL

[2] = molecular target: T1, human CX3CR1; assay: cell-based or functional assay
[3] = molecular target: T1, human CX3CR1; assay: A647-fractalkine competition FACS, BA/F3-huCX3CR1; remark: listed apart in the source
[4] = molecular target: T1, human CX3CR1; assay: cell-based or functional assay; remark: listed apart in the source
[5] = molecular target: T2, cynomolgus CX3CR1 (cynomolgus, UniProt P49238 1-355 (human entry)); assay: FACS binding, HEK293T cynomolgus CX3CR1
T2 construct: transiently expressed on HEK293T cells; also called cyCX3CR1; cyno CX3CR1
T2 chain: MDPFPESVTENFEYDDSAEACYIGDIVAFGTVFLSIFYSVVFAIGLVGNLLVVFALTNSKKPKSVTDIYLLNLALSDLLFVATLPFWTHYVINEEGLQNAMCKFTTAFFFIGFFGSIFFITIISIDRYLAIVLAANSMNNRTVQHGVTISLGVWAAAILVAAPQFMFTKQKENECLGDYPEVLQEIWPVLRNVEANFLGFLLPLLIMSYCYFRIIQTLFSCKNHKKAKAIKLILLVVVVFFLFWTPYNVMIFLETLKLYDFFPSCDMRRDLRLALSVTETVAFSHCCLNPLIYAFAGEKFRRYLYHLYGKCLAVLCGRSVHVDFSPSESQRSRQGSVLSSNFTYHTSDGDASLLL

[6] = molecular target: T2, cynomolgus CX3CR1; assay: FACS binding, cynomolgus against human CX3CR1
[7] = molecular target: T1, human CX3CR1; assay: A647-fractalkine competition FACS, CHO-huCX3CR1
Text: Periplasmic extracts were screened in a human CX3CR1/human Fractalkine FACS competition assay to assess the blocking capacity of the expressed VHHs. Human CX3CR1 was presented on CHO cells overexpressing CX3CR1. Both a setup using cells harvested from an actively growing culture and a setup using frozen cells was used. As a detection reagent labeled fractalkine was used (R&D Systems, Minneapolis, Minn., USA) labeled with alexa647 (A647-Fractalkine) at a degree of labeling of 1. To setup the assay, first a titration series of the labeled fractalkine was performed on the CHO-huCX3CR1 cells in order to determine the EC50 value for binding. Initially screening was performed at a higher concentration of fractalkine (3 nM) to increase the assay robustness. To increase the sensitivity of the screening to a maximum, the EC30 concentration (1 nM) was chosen for subsequent screening. In brief 50 μl of periplasmic extract was added to 6 nM labeled fractalkine (50 μ;) and 200 000 CHO-huCX3CR1 cells. After one hour incubation at 4 C, cells were washed three times before read out was performed on a FACS Array (Becton Dickinson). First a gate was set on the intact cells as determined from the scatter profile. Next, dead cells were gated out by their fluorescence profile from the PI stain (Sigma, St Louis, US). The fluorescence profile from the alexa647 label was determined for each sample and used for calculation of blocking capacity. As controls, conditions were taken along where there was no VHH present in the peri extract or a known irrelevant VHH and samples were included where excess cold fractalkine was included. For each sample the percentage block was determined using the control samples to determine the assay window.
The inhibition of ligand binding to human CX3CR1 was investigated for the different formats as described in Example 4. For this characterization the BA/F3-huCX3CR1 cell line was used showing stable expression of the human CX3CR1 receptor. The alexa647 labeled ligand fractalkine was used at its EC30 concentration and thereby obtained IC50 values are reflective of the Ki values.

[8] = molecular target: T1, human CX3CR1; assay: FACS binding, HEK293T human CX3CR1
[9] = molecular target: T1, human CX3CR1; assay: cell-based or functional assay; remark: listed apart in the source
[10] = molecular target: T1, human CX3CR1; assay: A647-fractalkine competition FACS, BA/F3-huCX3CR1; remark: listed apart in the source

B1: 66B02-mFc (Fc fusion)
chain: EVQLVESGGGSVQAGESLRLSCAASGSIFSSNAMAWYRQAPGKRRDLVAAINSVGVTKYADSVKGRFTISRDNAKNTVYLQMNSLKPEDTAVYYCTSDPRRGWDTRYWGQGTLVTVSSGGGGSGGGGSGGGGSPPCKCPAPNLLGGPSVFIFPPKIKDVLMISLSPIVTCVVVAVSEDDPDVQISWFVNNVEVHTAQTQTHREDYNSTLRVVSALPIQHQDWMSGKEFKCKVNNKDLPAPIERTISKPKGSVRAPQVYVLPPPEEEMTKKQVTLTCMVTDFMPEDIYVEWTNNGKTELNYKNTEPVLDSDGSYFMYSKLRVEKKNWVERNSYSCSVVHEGLHNHHTTKSFSRTPGK
notes: 66B02 VHH fused to a mouse IgG2 Fc domain with D265A in CH2; expressed in HEK293T or NS0 cells; dimer form is told only as an aspect
IC50 [1]: 0.57 nM
IC50, Calcium influx [2]: 0.98 nM
IC50, Chemotaxis [2]: 0.89 nM
IC50, Ligand internalization [2]: 0.52 nM

B2: 306D-hFc (Fc fusion)
chain: DVQLVESGGGLVQPGGSLRLSCAASGSIFSSTAMAWYRQAPGKRRDLVAAISSVGVTKYADSVKGRFTISRDNSKNTVYLQMNSLRPEDTAVYYCTSDPRRGWDTRYWGQGTLVTVSSGGGGSGGGGSGGGGSCPPCPAPEAAGGPSVFLFPPKPKDTLMISRTPEVTCVVVDVSHEDPEVKFNWYVDGVEVHNAKTKPREEQYNSTYRVVSVLTVLHQDWLNGKEYKCKVSNKALPAPIEKTISKAKGQPREPQVYTLPPSREEMTKNQVSLTCLVKGFYPSDIAVEWESNGQPENNYKTTPPVLDSDGSFFLYSKLTVDKSRWQQGNVFSCSVMHEALHNHYTQKSLSLSPGK
notes: CX3CR1BII00306 fused to a human IgG1 Fc domain with two mutations in CH2; expressed in HEK293T or NS0 cells
IC50 [3]: 0.69 nM
IC50, Calcium influx [4]: 1.3 nM
IC50, Chemotaxis [4]: 2.9 nM
IC50, Ligand internalization [4]: 0.48 nM

B3: 307D-hFc (Fc fusion)
chain: B2 chain with S53T
notes: CX3CR1BII00307 fused to a human IgG1 Fc domain with two mutations in CH2; expressed in HEK293T or NS0 cells
IC50 [3]: 0.7 nM
IC50, Calcium influx [4]: 3.2 nM
IC50, Chemotaxis [4]: 3 nM
IC50, Ligand internalization [4]: 0.37 nM

B5: CX3CR1BII026 (VHH)
chain: EVQLVESGGGLVQAGGSLRLSCVASGRTFSSYAMGWFRQAPGKERAFVAGISGSASRKYYADSVKGRFTVSRDNARNTVYLQMNSLKPEDTAVYYCAASNSYPKVQFDYYGQGTQVTVSSGGGGSGGGGSGGGGSGGGGSGGGGSGGGGSGGGGSEVQLVESGGGSVQAGESLRLSCAASGSIFSSNAMAWYRQAPGKRRDLVAAINSVGVTKYADSVKGRFTISRDNAKNTVYLQMNSLKPEDTAVYYCTSDPRRGWDTRYWGQGTQVTVSS
notes: expressed in E. coli as described for the monovalent VHHs
IC50 [10]: 0.7 nM
% block, fractalkine induced chemotaxis [9]: 98%
IC50, fractalkine induced chemotaxis [9]: 0.3 nM

The remaining lines, values ahead:

EC50 [5]: 0.063 nM
ratio (cynomolgus/human EC50) [6]: 1.1
% block [7]: 93%
IC50 [7]: 0.8 nM
EC50 [8]: 0.056 nM
% block, fractalkine induced chemotaxis [9]: 78%
IC50, fractalkine induced chemotaxis [9]: 4 nM
B4: CX3CR1BII012 (VHH)
chain: EVQLVESGGGSVQAGGSLRLSCAASGSIFSSNAMAWYRQAPGKQRDLVAGINSVGITKYADSVKGRFTISRDNAKNTVYLQMNSLKPEDTAVYYCTSDPRRGWDTRYWGQGTLVTVSSGGGGSGGGGSGGGGSGGGGSGGGGSGGGGSGGGGSKVQLVESGGGLVQPGGSLRLSCATSGTIFSNNAMGWYRQAPGKKRDLVASISSSGSTNYADSVKGRFTVSRDNDKNTGYLQMNSLKPEDTGVYYCTLDARRGWNTAYWGQGAQVTVSS
notes: as for B5

IC50 [10]: 0.67 nM
% block, fractalkine induced chemotaxis [9]: 98%
IC50, fractalkine induced chemotaxis [9]: 0.9 nM
B6: CX3CR1BII027 (VHH)
chain: B5 chain with R199Q, A205G, V211I, V233A, Q268L
notes: as for B5
